Tests used:
[1] = molecular target: T1, RanBP9 (69–653)-Twa1 (1–228) complex (mouse, UniProt P69566 69-653; Q9D7M1 1-228); experiment: ITC; competition: RanBP9-Twa1 or RanBP10-Twa1 complex (160 μM) titrated into pre-formed Twa1_52-muskelin or Twa1_52-Wdr26 complex (16 μM); 25°C; competitive binding model with the parameters of the first titration; conditions: both partners purified
T1 construct: RanBP9, mouse, residues 69-653; Twa1, mouse, residues 1-228; In the text on the KD values the complex is called simply RanBP9; also called RanBP9-Twa1; source: E. coli BL21 CodonPlus (DE3) RIL, complex purified as described previously (van gen Hassend et al., 2023)

[2] = molecular target: the molecule itself; experiment: SEC-MALS; ITC-assembled samples: excess RanBP9-Twa1 added to pre-assembled Twa1_52-muskelin or Twa1_52-Wdr26; Superose 6 10/300 GL
[3] = molecular target: the molecule itself; experiment: SEC-MALS; Superdex 200 10/300 GL; Twa1 (1–228) alone, co-expressed Twa1-Rmnd5a (CTLH-CRA) and Twa1-Maea (CTLH-CRA) complexes, Maea double mutant (Y272A, Y275A)
[4] = molecular target: T2, muskelin CTLH-CRA domain (205–735 Δ248–625) (rat, UniProt Q99PV3 205-735, Δ248–625); experiment: ITC; muskelin CTLH-CRA (160 μM, syringe) titrated into RanBP10 or Twa1 CTLH-CRA variants (16 μM, cell); 25°C; 20 mM tricine pH 8.0, 500 mM NaCl, 1 mM TCEP; one-site model; conditions: both partners purified
T2 construct: muskelin, rat, fusion of the CTLH motif and the C-terminus (CRA^N-like): residues 205-735 with 248-625 deleted; also called muskelin wt; CTLH-Ct construct; source: E. coli BL21 CodonPlus (DE3) RIL, purified as described previously (van gen Hassend et al., 2023)

[5] = molecular target: T3, RanBP9 CTLH-CRA domain (324–614, Δ391–534) (mouse, UniProt P69566 324-614, Δ391–534); experiment: SEC-MALS; CTLH-CRA domain complexes co-expressed in E. coli and purified as complexes; Superdex 75 10/300 GL; 20 mM tricine pH 8.0, 500 mM NaCl, 1 mM TCEP; conditions: both partners purified
T3 construct: RanBP9, mouse, fusion of CTLH and CRA^N: residues 324-614 with the linker 391-534 deleted (without the CRA^C segment); A longer construct with the CRA^C segment (324–638, Δ391–534) was crystallised alone (PDB 9SNE); also called R9

Twa1 (1–228) = molecular target: T4, Twa1 (1–228) (mouse, UniProt Q9D7M1 1-228); experiment: SEC-MALS; Superdex 200 10/300 GL; Twa1 (1–228) alone, co-expressed Twa1-Rmnd5a (CTLH-CRA) and Twa1-Maea (CTLH-CRA) complexes, Maea double mutant (Y272A, Y275A); conditions: both partners purified
T4 construct: Twa1, mouse, residues 1-228; A homodimer on its own (SEC-MALS); one copy pairs with RanBP10 in the heterodimer of PDB 9SOC; also called full-length dimeric Twa1; source: E. coli BL21 CodonPlus (DE3) RIL, purified as described previously (van gen Hassend et al., 2023)
T4 sequence (Q9D7M1 whole entry, the tested form may be a part): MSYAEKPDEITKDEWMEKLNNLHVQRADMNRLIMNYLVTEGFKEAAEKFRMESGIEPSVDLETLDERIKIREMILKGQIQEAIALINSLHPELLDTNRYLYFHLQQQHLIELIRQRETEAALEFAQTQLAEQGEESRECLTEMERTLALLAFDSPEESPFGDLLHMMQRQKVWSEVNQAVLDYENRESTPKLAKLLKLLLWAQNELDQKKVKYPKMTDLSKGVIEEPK

T1 sequence (P69566 69-653, chain 1 of 2): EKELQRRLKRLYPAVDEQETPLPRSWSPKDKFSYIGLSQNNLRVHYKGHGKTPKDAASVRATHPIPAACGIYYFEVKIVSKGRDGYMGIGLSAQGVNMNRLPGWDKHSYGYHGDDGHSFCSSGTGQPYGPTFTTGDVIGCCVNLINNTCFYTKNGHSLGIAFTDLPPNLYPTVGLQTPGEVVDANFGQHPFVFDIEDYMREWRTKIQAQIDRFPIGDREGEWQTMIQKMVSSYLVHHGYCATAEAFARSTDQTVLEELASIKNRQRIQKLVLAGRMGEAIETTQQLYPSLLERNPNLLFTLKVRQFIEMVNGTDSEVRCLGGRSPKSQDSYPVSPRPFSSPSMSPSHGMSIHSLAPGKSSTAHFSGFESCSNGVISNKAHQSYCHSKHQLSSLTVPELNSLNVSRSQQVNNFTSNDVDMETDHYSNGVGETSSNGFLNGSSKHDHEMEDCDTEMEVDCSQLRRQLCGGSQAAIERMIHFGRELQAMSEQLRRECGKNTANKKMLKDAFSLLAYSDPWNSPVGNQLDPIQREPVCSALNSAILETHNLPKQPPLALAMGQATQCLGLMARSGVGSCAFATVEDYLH
T1 sequence (Q9D7M1 whole entry, chain 2 of 2, the tested form may be a part): as the sequence (Q9D7M1 whole entry, the tested form may be a part) above
T3 sequence (P69566 other isoform, or with tags, fused parts or gaps Δ391–534 | Δ391–534 | mutant): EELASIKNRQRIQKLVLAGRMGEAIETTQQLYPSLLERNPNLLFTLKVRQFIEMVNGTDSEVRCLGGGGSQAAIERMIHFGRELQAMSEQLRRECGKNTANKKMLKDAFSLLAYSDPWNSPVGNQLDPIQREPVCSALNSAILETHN

B1: Wdr26 (102–641) (domain or fragment, mouse, UniProt Q8C6G8 102-641, looked up)
chain: QSDEDVIRLIGQHLNGLGLNQTVDLLMQESGCRLEHPSATKFRNHVMEGDWDKAENDLNELKPLVHSPHAIVVRGALEISQTLLGIIVRMKFLLLQQKYLEYLEDGKVLEALQVLRCELTPLKYNTERIHVLSGYLMCSHAEDLRAKAEWEGKGTASRSKLLDKLQTYLPPSVMLPPRRLQTLLRQAVELQRDRCLYHNTKLDNNLDSVSLLIDHVCSRRQFPCYTQQILTEHCNEVWFCKFSNDGTKLATGSKDTTVIIWQVDPDTHLLKLLKTLEGHAYGVSYIAWSPDDSYLVACGPDDCSELWLWNVQTGELRTKMSQSHEDSLTSVAWNPDGKRFVTGGQRGQFYQCDLDGNLLDSWEGVRVQCLWCLSDGKTVLASDTHQRVRGYNFEDLTDRNIVQEDHPIMSFTISKNGRLALLNVATQGVHLWDLQDRVLVRKYQGVTQGFYTIHSCFGGHNEDFIASGSEDHKVYIWHKRSELPIAELTGHTRTVNCVSWNPQIPSMMASASDDGTVRIWGPAPFIDHQNIEEECSSMDS
notes: Wdr26, mouse, residues 102-641; also called dimeric Wdr26; (near) full-length Wdr26; source: E. coli BL21 CodonPlus (DE3) RIL, purified as described previously (van gen Hassend et al., 2023)
[1]
  Kd: 0.412 nM
[2]
  stoichiometry N: 2

B2: Maea CTLH-CRA domain double mutant (Y272A, Y275A) (domain or fragment, mouse, UniProt Q4VC33 156-279, looked up)
chain: NIEMFLTAKEVEESLERRETATCLAWCHDNKSRLRKMKSCLEFSLRIQEFIELVRQNKRLDAVRHARKHFSQAEGSQLDEVRQVMGMLAFPPDTHISPYKDLLDPARWRMLIQQFRADNARLHQ
notes: Maea, mouse, CTLH-CRA domain; also called Maea double mutant; source: E. coli BL21 CodonPlus (DE3) RIL, purified (Ni-IDA, 3C cleavage, SEC); not shown: His6, N-terminal, cleaved
[3]
  stoichiometry N: 2

B3: Twa1_14 mutant (A125G, Q126R, ΔT127, Q128E, A130Q, M143L, E144Q, L147F, A148S, F152Y, F160V; 58–190), CTLH-CRA domain (domain or fragment, mouse, UniProt Q9D7M1 58-190, looked up)
chain: SVDLETLDERIKIREMILKGQIQEAIALINSLHPELLDTNRYLYFHLQQQHLIELIRQRETEAALEFGRELQEQGEESRECLTELQRTFSLLAYDSPEESPVGDLLHMMQRQKVWSEVNQAVLDYENRESTP
notes: Twa1, mouse, CTLH-CRA domain 58-190 with eleven RanBP10-like changes; also called Twa_14; source: E. coli BL21 CodonPlus (DE3) RIL, purified (Ni-IDA, 3C cleavage, SEC); not shown: His6, N-terminal, cleaved
[4]
  Kd: 192 nM

B4: muskelin (1–735) (natural protein, rat, UniProt Q99PV3 1-735, looked up)
chain: MAAGGAVAAAPECRLLPYALHKWSSFSSTYLPENILVDKPNDQSSRWSSESNYPPQYLILKLERPAIVQNITFGKYEKTHVCNLKKFKVFGGMNEENMTELLSSGLKNDYNKETFTLKHKIDEQMFPCRFIKIVPLLSWGPSFNFSIWYVELSGIDDPDIVQPCLNWYSKYREQEAIRLCLKHFRQHNYTEAFESLQKKTKIALEHPMLTDMHDKLVLKGDFDACEELIEKAVNDGLFNQYISQQEYKPRWSQIIPKSTKGDGEDNRPGMRGGHQMVIDVQTETVYLFGGWDGTQDLADFWAYSVKENQWTCISRDTEKENGPSARSCHKMCIDIQRRQIYTLGRYLDSSVRNSKSLKSDFYRYDIDTNTWMLLSEDTAADGGPKLVFDHQMCMDSEKHMIYTFGGRILTCNGSVDDSRASEPQFSGLFAFNCQCQTWKLLREDSCNAGPEDIQSRIGHCMLFHSKNRCLYVFGGQRSKTYLNDFFSYDVDSDHVDIISDGTKKDSGMVPMTGFTQRATIDPELNEIHVLSGLSKDKEKREENVRNSFWIYDIVRNSWSCVYKNDQAAKENLSKSLQEEEPCPRFAHQLVYDELHKVHYLFGGNPGKSCSPKMRLDDFWSLKLCRPSKDYLLRHCKYLIRKHRFEEKAQMDPLSALKYLQNDLYITVDHSDPEETKEFQLLASALFKSGSDFTALGFSDVDHTYAQRTQLFDTLVNFFPDSMTPPKGNLVDLITL
notes: muskelin, rat, residues 1-735; also called full-length muskelin; tetrameric muskelin; source: E. coli BL21 CodonPlus (DE3) RIL, purified as described previously (van gen Hassend et al., 2023)
[1]
  Kd: 0.0795 nM
[2]
  stoichiometry N: 4

B5: muskelin CTLH-CRA domain, C-terminally shortened (205–719, Δ248–624) (domain or fragment, rat, UniProt Q99PV3 205-719, looked up)
chain: EHPMLTDMHDKLVLKGDFDACEELIEKAVNDGLFNQYISQQEYRPSKDYLLRHCKYLIRKHRFEEKAQMDPLSALKYLQNDLYITVDHSDPEETKEFQLLASALFKSGSDFTALGFSDVDHTYAQRTQLFDTLVNFFP
notes: muskelin, rat, residues 205-719 with 248-624 deleted; Insoluble on its own; soluble only when co-expressed with RanBP9/10 CTLH-CRA domains; also called muskelin (shortened C-terminus); Mkln; not shown: His6, N-terminal, cleaved
[5]
  stoichiometry N: 1

B6: Rmnd5a CTLH-CRA domain (147-275) (domain or fragment, mouse, UniProt Q80YQ8 147-275, looked up)
chain: DPSQKEPFVELNRILEALKVRVLRPALEWAVSNREMLIAQNSSLEFKLHRLYFISLLMGGTTNQREALQYAKNFQPFALNHQKDIQVLMGSLVYLRQGIENSPYVHLLDANQWADICDIFTRDACALLG
notes: Rmnd5a, mouse, residues 147-275; Could not be purified on its own; soluble when co-expressed with Twa1; source: E. coli BL21 CodonPlus (DE3) RIL, co-expressed with Twa1 (1–228), complex purified (Ni-IDA, 3C cleavage, SEC); not shown: His6, N-terminal, cleaved
Twa1 (1–228)
  stoichiometry N: 1

Source: publication PMC13061415, “A structural code for assembly specificity in GID/CTLH-type E3 ligases” (eLife, 2026)
